Experiment in all cases: ITC
The target in assay [1] is T1, SUDV VP30 CTD (139–288) (Sudan ebolavirus (SUDV), UniProt Q5XX03 139-288).
T1 chain: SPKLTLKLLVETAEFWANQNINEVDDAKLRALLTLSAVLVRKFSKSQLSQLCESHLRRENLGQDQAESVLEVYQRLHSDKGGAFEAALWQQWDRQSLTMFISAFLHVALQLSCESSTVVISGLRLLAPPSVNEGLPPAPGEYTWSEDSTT

For assay [2], the target named is T2, Ebola virus VP30 C-terminal domain (amino acids 139–288) (Ebola virus (EBOV), UniProt Q05323 139-288).
T2 chain: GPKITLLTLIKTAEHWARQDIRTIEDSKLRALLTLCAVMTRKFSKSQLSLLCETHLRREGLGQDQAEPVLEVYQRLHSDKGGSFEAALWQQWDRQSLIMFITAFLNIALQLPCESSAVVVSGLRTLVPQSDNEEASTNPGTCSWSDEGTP

Assay [3] deals with T3, MARV VP30 CTD (146–281) (Marburg virus (MARV), UniProt P35258 146-281).
T3 chain: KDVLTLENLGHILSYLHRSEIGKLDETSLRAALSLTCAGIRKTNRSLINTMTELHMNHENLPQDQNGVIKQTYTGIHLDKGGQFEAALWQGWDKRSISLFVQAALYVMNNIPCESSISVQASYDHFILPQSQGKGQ

Assay [4] deals with T4, SUDV VP30 CTD (139–288) (Sudan ebolavirus (SUDV), UniProt Q5XX03 139-288).
T4 sequence: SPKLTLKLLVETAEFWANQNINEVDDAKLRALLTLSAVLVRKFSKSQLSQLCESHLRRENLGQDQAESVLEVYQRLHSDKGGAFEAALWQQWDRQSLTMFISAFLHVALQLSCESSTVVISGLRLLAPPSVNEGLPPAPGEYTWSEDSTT
The following applies: both partners purified.

This note sets out measurements from article PMC5068707 (PLoS Pathogens, 2016).

Regarding EQGVDLPPPPLYAQEKRQ [MARV NP peptide (552–569) fused to T4 lysozyme], in assay [1], the affinity, expressed as Kd, was 27.1 µM. That is a double-digit micromolar value.

Regarding NTPTVAPPAPVYKDTGVD [SUDV NP peptide (600–617) fused to T4 lysozyme], the values for the Kd in assay [2], in assay [3] and in assay [1] were 9.5 µM, 70 µM and 7.98 µM, respectively.

With RTPTVAPPAPVYRDHSEK [EBOV NP 600–617 fused to T4 lysozyme], the Kd in assay [3] is 35 µM; in assay [1], 4.9 µM. Further, the binding result in assay [4] is “binds”.
